Experiment [1] has as its target T1, 6×Histidine-tagged human PD-L1 protein (hPDL1-His) (human, UniProt Q9NZQ7 19-238).
T1 construct: also called hPL1-His; His-tagged human PD-L1
Description: SPR Biacore T200; binder captured on protein A chip, target as analyte. (SPR reads the build-up and loss of mass on a sensor chip optically.)

Experiment [2] has as its target T1, 6×Histidine-tagged human PD-L1 protein …. The description is as above. This is another data set of the same source.
Experiment [3] has the same target. The experiment can be described thus: SPR Biacore T200; binder captured on protein A chip, hPL1-His 1.5625-200 nM as analyte. The procedure:
Dissociation was monitored for 400 seconds. The chip was regenerated after the last injection of each titration with Glycine (pH 2.0, 30 μL/min for 12 seconds). As a person of ordinary skill in the art would understand, the same method with appropriate adjustments for parameters (e.g., fusion protein concentration) was performed for each tested fusion protein.
Kinetic association rates (kon) and dissociation rates (koff) were obtained simultaneously by fitting the data globally to a 1:1 Langmuir binding model (Karlsson, R. Roos, H. Fagerstam, L. Petersson, B., 1994. Methods Enzymology 6. 99-110) using Biacore™ T200 Evaluation Software 3.0. Affinities were calculated from the quotient of the kinetic rate constants (KD=koff/kon). […] Non-specific effects were not observed.

Experiment [4] has as its target T2, His-tagged recombinant mouse IL12RB2 protein (mIL12R-B2-His) (mouse, UniProt P97378 24-637, limits assumed).
T2 construct: bought
T2 sequence (looked up): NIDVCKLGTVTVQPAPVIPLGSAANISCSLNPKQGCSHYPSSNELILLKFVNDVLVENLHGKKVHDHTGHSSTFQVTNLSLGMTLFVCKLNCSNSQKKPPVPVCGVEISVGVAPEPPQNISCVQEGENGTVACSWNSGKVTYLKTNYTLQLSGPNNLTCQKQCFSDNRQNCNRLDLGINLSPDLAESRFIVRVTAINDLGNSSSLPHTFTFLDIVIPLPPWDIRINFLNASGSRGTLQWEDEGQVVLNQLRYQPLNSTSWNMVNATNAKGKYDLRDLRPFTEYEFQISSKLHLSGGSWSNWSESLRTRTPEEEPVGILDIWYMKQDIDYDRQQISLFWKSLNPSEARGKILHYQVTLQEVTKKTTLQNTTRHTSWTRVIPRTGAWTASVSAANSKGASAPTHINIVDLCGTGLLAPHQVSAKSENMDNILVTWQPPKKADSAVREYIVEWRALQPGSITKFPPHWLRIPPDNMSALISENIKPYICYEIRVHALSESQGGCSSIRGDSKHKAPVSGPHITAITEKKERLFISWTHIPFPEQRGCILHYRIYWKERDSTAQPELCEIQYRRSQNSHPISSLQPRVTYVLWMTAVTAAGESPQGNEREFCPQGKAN
Description: SPR Biacore T200; binder captured on protein A chip, target as analyte.

In another experiment the target is T3, FcγRI-Sino (human, UniProt P12314 16-288, limits assumed).
T3 construct: bought; also called CD64 Protein, Human, Recombinant (His Tag)
T3 sequence (P12314 16-288 limits assumed): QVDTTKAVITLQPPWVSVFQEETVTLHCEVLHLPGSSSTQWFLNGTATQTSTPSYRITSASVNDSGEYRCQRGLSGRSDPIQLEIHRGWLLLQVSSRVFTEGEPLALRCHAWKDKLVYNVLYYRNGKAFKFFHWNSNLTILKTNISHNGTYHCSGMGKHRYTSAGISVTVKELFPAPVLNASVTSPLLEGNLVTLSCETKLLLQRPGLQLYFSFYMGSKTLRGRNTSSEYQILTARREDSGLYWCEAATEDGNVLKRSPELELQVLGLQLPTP
Description: SPR (Biacore T200), antibody captured on protein A sensor chip, Fc receptor as analyte; analyte range 400nm-6.25nm. The source says: (§1) The Fc receptors included FcγRIIB (FcγRIIB-Acro), FcγRIIA (FcγRIIA-H167-Acro), FcγRIIIA (FcγRIIIA-V176-Acro), FcγRIIIB (FcγRIIIB-NA1-Acro), FcγRI (FcγRI-Sino), and FcRn (FcRn-Acro).

For the next experiment, the target named is T4, FcγRIIA-H167-Acro (human, UniProt P12318 36-218, limits assumed).
T4 construct: bought; His at 167; also called Human Fc gamma RIIA/CD32a (H167) Protein, His Tag
T4 sequence (looked up): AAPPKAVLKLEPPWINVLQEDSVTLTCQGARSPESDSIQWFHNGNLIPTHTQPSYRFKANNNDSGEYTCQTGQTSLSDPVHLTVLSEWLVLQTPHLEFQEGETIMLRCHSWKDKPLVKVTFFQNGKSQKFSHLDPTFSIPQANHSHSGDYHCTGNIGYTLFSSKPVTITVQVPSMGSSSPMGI
The experiment can be described thus: SPR (Biacore T200), antibody captured on protein A sensor chip, Fc receptor as analyte; analyte range 800nm-6.25nm.
Description: as §1

In another experiment the target is T5, FcγRIIIB-NA1-Acro (human, UniProt O75015 17-200, limits assumed).
T5 construct: bought; also called Human Fc gamma RIIIB/CD16b (NA1) Protein, His Tag
T5 sequence (O75015 other isoform, or with tags, fused parts or gaps limits assumed): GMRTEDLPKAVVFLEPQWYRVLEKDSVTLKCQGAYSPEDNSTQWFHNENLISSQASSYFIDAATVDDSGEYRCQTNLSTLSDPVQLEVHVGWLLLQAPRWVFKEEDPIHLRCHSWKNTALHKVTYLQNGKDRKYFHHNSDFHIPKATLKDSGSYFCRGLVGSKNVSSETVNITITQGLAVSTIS
The description is as above.
Description: as §1

For another experiment, the target named is T6, FcγRIIIA-V176-Acro (human, UniProt P08637 17-208).
T6 construct: bought; Val at 176; also called Human Fc gamma RIIIA/CD16a (V176) Protein, His Tag
T6 sequence (P08637 17-208 F176V limits assumed): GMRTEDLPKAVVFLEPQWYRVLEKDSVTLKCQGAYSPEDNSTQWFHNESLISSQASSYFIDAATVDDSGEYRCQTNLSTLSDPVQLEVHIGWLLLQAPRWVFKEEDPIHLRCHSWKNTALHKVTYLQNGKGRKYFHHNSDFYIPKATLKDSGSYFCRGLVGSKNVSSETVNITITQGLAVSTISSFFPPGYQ
The experiment can be described thus: SPR (Biacore T200), antibody captured on protein A sensor chip, Fc receptor as analyte; analyte range 400nm-3.125nm.
Description: as §1

For another experiment, the target named is T7, FcRn (human, UniProt P55899 24-297; P61769 21-119).
T7 construct: bought; also called FcγRn; FcRn-Acro
T7 sequence (P55899 24-297 limits assumed, chain 1 of 2): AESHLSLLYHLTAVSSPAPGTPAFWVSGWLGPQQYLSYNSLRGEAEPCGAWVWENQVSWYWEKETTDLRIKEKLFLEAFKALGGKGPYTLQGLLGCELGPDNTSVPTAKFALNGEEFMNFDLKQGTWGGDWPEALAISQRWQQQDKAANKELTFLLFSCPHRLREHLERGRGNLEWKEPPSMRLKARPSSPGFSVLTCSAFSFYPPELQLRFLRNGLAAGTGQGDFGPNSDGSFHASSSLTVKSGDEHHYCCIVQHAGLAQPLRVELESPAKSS
T7 sequence (P61769 21-119 limits assumed, chain 2 of 2): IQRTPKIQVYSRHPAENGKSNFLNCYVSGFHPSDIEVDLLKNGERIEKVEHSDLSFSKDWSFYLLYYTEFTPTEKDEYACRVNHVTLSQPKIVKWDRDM
The experiment can be described thus: SPR (Biacore T200), antibody captured on protein A sensor chip, FcRn-Acro as analyte; analyte range 1000nm-15.625nm.
Description: as §1

The target of another experiment is T8, TGFb1 (Homo sapiens (Human), UniProt P01137 279-390, Active TGF-beta-1 is a disulfide-linked homodimer of this chain; one copy is given.).
T8 construct: also called TGFb1 protein
T8 sequence (P01137 279-390 limits assumed): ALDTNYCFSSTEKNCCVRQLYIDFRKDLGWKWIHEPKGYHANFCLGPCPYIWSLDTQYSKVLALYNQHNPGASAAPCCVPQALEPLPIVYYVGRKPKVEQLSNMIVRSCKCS
The experiment can be described thus: SPR; binder as capture solution, TGFb1 as analyte.

The text below walks through data of patent publication US20240360201A1 (BIOCYTOGEN PHARMACEUTICALS BEIJING, published 2024).

T1 sequence (Q9NZQ7 19-238 limits assumed): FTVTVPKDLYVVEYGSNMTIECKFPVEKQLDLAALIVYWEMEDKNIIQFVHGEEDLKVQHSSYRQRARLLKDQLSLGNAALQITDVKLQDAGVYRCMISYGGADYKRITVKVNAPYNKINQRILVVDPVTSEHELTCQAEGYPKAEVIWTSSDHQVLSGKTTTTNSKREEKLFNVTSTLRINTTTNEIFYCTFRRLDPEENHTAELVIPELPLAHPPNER

B1: PDL1-3F2 (antibody, human IgG1, kappa)
heavy: not shown
light: DIVLTQSPDFQSVTPKEKVTITCRASQSISNNLHWYQQKPDESPKLLIKYASQSISGIPSRFSGSGSGTDFTLTINSVEAEDFAMYFCQQSKSWPFTFGQGTRLEIKRTVAAPSVFIFPPSDEQLKSGTASVVCLLNNFYPREAKVQWKVDNALQSGNSQESVTEQDSKDSTYSLSSTLTLSKADYEKHKVYACEVTHQGLSSPVTKSFNRGEC
notes: also called PDL1-3F2-IgG1; PDL1-3F2 IgG1
Usually Kd stands for the concentration at which binding is half-saturated. What is called koff is a measure of how fast the partners let go of each other. The term kon denotes the rate constant with which the complex forms. On to B1, for which the Kd in experiment [1] came out at 0.372 nM; in experiment [2] it was 0.372 nM; in [3], 0.559 nM. The results for the koff in experiment [1], in [2] and in experiment [3] were 0.000652 s⁻¹, 0.000652 s⁻¹ and 0.0013 s⁻¹, respectively. In addition, the kon in experiment [1] stood at 1.75e+06 M⁻¹ s⁻¹; in [2], 1.75e+06 M⁻¹ s⁻¹; in [3], 2.32e+06 M⁻¹ s⁻¹.

B2: 3F2-mIL12-3A (antibody, IgG1)
heavy: QVQLQESGPGLVKPSETLSLTCTVSGYSITSGYNWHWIRQFPGNGLEWMGYIHHSSITNYNPSLKSRITISRDTSKNQFSLKLSSVTAADTATYYCAREGYDYDWFAYWGQGTLVTVSSASTKGPSVFPLAPSSKSTSGGTAALGCLVKDYFPEPVTVSWNSGALTSGVHTFPAVLQSSGLYSLSSVVTVPSSSLGTQTYICNVNHKPSNTKVDKKVEPKSCDKTHTCPPCPAPELLGGPSVFLFPPKPKDTLMISRTPEVTCVVVDVSHEDPEVKFNWYVDGVEVHNAKTKPREEQYNSTYRVVSVLTVLHQDWLNGKEYKCKVSNKALPAPIEKTISKAKGQPREPQVYTLPPSRDEGGGGSGGGGSVIPVSGPARCLSQSRNLLKTTDDMVKTAREKLKHYSCTAEDIDHEDITRDQTSTLKTCLPLELHKNESCLATRETSSTTRGSCLPPQKTSLMMTLCLGSIYEDLKMYQTEFQAINAALQNHNHQQIILDKGMLVAIDELMQSLNHNGETLRQKPPVGEADPYRVKMKLCILLHAFSTRVVTINRVMGYLSSAGGGGSGGGGSVSLTCLVKGFYPSDIAVEWESNGQPENNYKTTPPVLDSDGSFFLYSKLTVDKSRWQQGNVFSCSVMHEALHNHYTQKSLSLSPGK
light: B1 light
chain: MWELEKDVYVVEVDWTPDAPGETVNLTCDTPEEDDITWTSDQRHGVIGSGKTLTITVKEFLDAGQYTCHKGGETLSHSHLLLHKKENGIWSTEILKNFKNKTFLKCEAPNYSGRFTCSWLVQRNMDLKFNIKSSSSSPDSRAVTCGMASLSAEKVTLDQRDYEKYSVSCQEDVTCPTAEETLPIELALEARQQNKYENYSTSFFIRDIIKPDPPKNLQMKPLKNSQVEVSWEYPDSWSTPHSYFSLKFFVRIQRKKEKMKETEEGCNQKGAFLVEKTSTEVQCKGGNVCVQAQDRYYNSSCSKWACVPCRVRS
notes: IgG1; IL12b co-expressed; also called 3F2-mIL12-3A-IgG1
For the molecule B2, in experiment [4], the Kd came to 58.5 nM, the koff is 0.00335 s⁻¹ and the kon turned out to be 57300 M⁻¹ s⁻¹. Further, in experiment [3], the Kd was determined as 0.382 nM, the koff was determined as 0.000952 s⁻¹ and the on-rate (kon) was determined as 2.49e+06 M⁻¹ s⁻¹.

B3: 3F2-mIL12-3A-mIFNa4 (antibody, IgG1)
heavy: QVQLQESGPGLVKPSETLSLTCTVSGYSITSGYNWHWIRQFPGNGLEWMGYIHHSSITNYNPSLKSRITISRDTSKNQFSLKLSSVTAADTATYYCAREGYDYDWFAYWGQGTLVTVSSASTKGPSVFPLAPSSKSTSGGTAALGCLVKDYFPEPVTVSWNSGALTSGVHTFPAVLQSSGLYSLSSVVTVPSSSLGTQTYICNVNHKPSNTKVDKKVEPKSCDKTHTCPPCPAPELLGGPSVFLFPPKPKDTLMISRTPEVTCVVVDVSHEDPEVKFNWYVDGVEVHNAKTKPREEQYNSTYRVVSVLTVLHQDWLNGKEYKCKVSNKALPAPIEKTISKAKGQPREPQVYTLPPSRDEGGGGSGGGGSVIPVSGPARCLSQSRNLLKTTDDMVKTAREKLKHYSCTAEDIDHEDITRDQTSTLKTCLPLELHKNESCLATRETSSTTRGSCLPPQKTSLMMTLCLGSIYEDLKMYQTEFQAINAALQNHNHQQIILDKGMLVAIDELMQSLNHNGETLRQKPPVGEADPYRVKMKLCILLHAFSTRVVTINRVMGYLSSAGGGGSGGGGSVSLTCLVKGFYPSDIAVEWESNGQPENNYKTTPPVLDSDGSFFLYSKLTVDKSRWQQGNVFSCSVMHEALHNHYTQKSLSLSPGKGGGGSGGGGSGGGGSGGGGSCDLPHTYNLGNKRALTVLEEMRRLPPLSCLKDRKDFGFPLEKVDNQQIQKAQAILVLRDLTQQILNLFTSKDLSATWNATLLDSFCNDLHQQLNDLKACVMQEPPLTQEDSLLAVRTYFHRITVYLRKKKHSLCAWEVIRAEVWRALSSSTNLLARLSEEKE
light: B1 light
chain: B2 chain
notes: IgG1; 3F2-mIL12-3A with mIFNa4 linked to each heavy chain C-terminus
With B3, in experiment [4], the Kd came to 56.5 nM, the koff was 0.00299 s⁻¹ and the kon was determined as 52900 M⁻¹ s⁻¹. Also, in experiment [3], binding was characterised by a dissociation constant (Kd) of 0.396 nM, the koff was found to be 0.000922 s⁻¹ and the kon was determined as 2.33e+06 M⁻¹ s⁻¹.

B4: PDL1-mIL7-3A (antibody, human IgG1, lambda)
heavy: EVQLLESGGGLVQPGGSLRLSCAASGFTFSSYIMMWVRQAPGKGLEWVSSIYPSGGITFYADTVKGRFTISRDNSKNTLYLQMNSLRAEDTAVYYCARIKLGTVTTVDYWGQGTLVTVSSASTKGPSVFPLAPSSKSTSGGTAALGCLVKDYFPEPVTVSWNSGALTSGVHTFPAVLQSSGLYSLSSVVTVPSSSLGTQTYICNVNHKPSNTKVDKKVEPKSCDKTHTCPPCPAPELLGGPSVFLFPPKPKDTLMISRTPEVTCVVVDVSHEDPEVKFNWYVDGVEVHNAKTKPREEQYNSTYRVVSVLTVLHQDWLNGKEYKCKVSNKALPAPIEKTISKAKGQPREPQVYTLPPSRDEGGGGSGGGGSECHIKDKEGKAYESVLMISIDELDKMTGTDSNCPNNEPNFFRKHVCDDTKEAAFLNRAARKLKQFLKMNISEEFNVHLLTVSQGTQTLVNCTSKEEKNVKEQKKNDACFLKRLLREIKTCWNKILKGSIGGGGSGGGGSVSLTCLVKGFYPSDIAVEWESNGQPENNYKTTPPVLDSDGSFFLYSKLTVDKSRWQQGNVFSCSVMHEALHNHYTQKSLSLSPGA
light: QSALTQPASVSGSPGQSITISCTGTSSDVGGYNYVSWYQQHPGKAPKLMIYDVSNRPSGVSNRFSGSKSGNTASLTISGLQAEDEADYYCSSYTSSSTRVFGTGTKVTVLGQPKANPTVTLFPPSSEELQANKATLVCLISDFYPGAVTVAWKADGSPVKAGVETTKPSKQSNNKYAASSYLSLTPEQWKSHRSYSCQVTHEGSTVEKTVAPTECS
notes: IgG1 immunocytokine
As for B4, the dissociation constant Kd with FcγRI-Sino turned out to be 194 nM; with FcγRIIA-H167-Acro it was 426 nM; with FcγRIIIB-NA1-Acro it was 479 nM; with FcγRIIIA-V176-Acro, 75.5 nM; with FcRn, 527 nM.

B5: M7824 (antibody, human IgG1, lambda)
heavy: not shown
light: B4 light
notes: Extracellular domain of TGFbR2 linked at the C terminal of the Fc of the anti-PDL1 antibody; also called bifunctional anti-PD-L1/TGFβ Trap fusion protein
On to B5, for which, in the experiment with TGFb1, binding was characterised by a dissociation constant (Kd) of 83 nM, the koff was 0.00852 s⁻¹ and the kon was found to be 103000 M⁻¹ s⁻¹.
